In patent US20100330072A1 (published 2010):

T1: recombinant mature myostatin (human, produced in E. coli) (human, UniProt O14793 267-375)
T1 construct: mature; also called GDF-8
T1 sequence (looked up): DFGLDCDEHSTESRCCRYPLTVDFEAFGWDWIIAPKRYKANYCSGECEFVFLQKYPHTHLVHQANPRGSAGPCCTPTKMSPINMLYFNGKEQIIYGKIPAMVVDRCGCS


Molecular target: T1, recombinant mature myostatin (human, …)
Test: KinExA solution equilibrium assay or BIAcore (table does not say which)

Row | Kd [pM] | Binder
1 | 12 | 2x mTN8-19-7 peptibody (Fc fusion, Fc dimer; also called 2×mTN8-19-7) GGGGGAQLADHGQCIRWPWMCPPEGWELEGSGSATGGSGSTASSGSGSATGLADHGQCIRWPWMCPPEGWELE
2 | 6 | 2x mTN8-19-21 peptibody (Fc fusion, Fc dimer) GGGGGAQSEYQGLCTRWPWMCPPQGWKLEGSGSATGGSGSTASSGSGSATGSEYQGLCTRWPWMCPPQGWKLE
3 | 3 | 2x mTN8-19-33 peptibody (Fc fusion, Fc dimer; also called 2×mTN8-19-33) GGGGGAQPESQGHCTRWPWMCPPQGWGLEGSGSATGGSGSTASSGSGSATGPESQGHCTRWPWMCPPQGWGLE
